Here are results for 4 molecules from article PMC11147780.

Assay [1] concerns the target 10E8 unmutated common ancestor antibody. The assay can be described thus: SPR. To be noted: chain shown with the change;; read off a plot.
The target in assay [2] is 10E8-iGL3 antibody (fully germline-reverted 10E8). Description: SPR. To be noted: chain shown with the change;; read off a plot.

B1: MPER (scaffold without germline-targeting mutations) 10E8-GT12 (substitutions not printed in the panel; sequence in Extended Data Fig. 1h) (protein)
chain: ETGNVTQEDIIRALASPLIKDGMVDEDFAEKVIENESRYPSGLQAKGVGFAIPHVLGDYVRDNAISVGILDKPVNFSEWYQSPDPVPVRVVFMLAIRTWDDITNVMNWIKDVVLDEEFMKRLLNMSDEEIYRQIYTRISKAPNLSGINFSREYVRHLNGS
Broadly, the Kd is the free concentration of one partner at which half of the binding sites on the other are occupied at equilibrium, for simple one-to-one binding. A high value points to lower affinity. For B1, the Kd in assay [1] was 180 nM; in assay [2], 1800 nM.

B2: MPER (scaffold without germline-targeting mutations) 10E8-GT11 (substitutions not printed in the panel; sequence in Extended Data Fig. 1h) (protein)
chain: VTQEDIIRALASPLIKDGMVDEDFAEKVIEQESRYPTGLQAKGVGVAIPHTLGDYVRDNAISVGILDKPVNFEGWYQSPDPVPVRVVFMLAIRTWDDIVNVLNWIKDVILDEEFMKRLLTMSDEEIYRQIYTRISKAPQLSGIHFKREYVRHLG
For the molecule B2, the results for the Kd in assay [1] and in assay [2] were 1400 nM and 20000 nM, respectively.

B3: 10E8-GT9.2 epitope scaffold P41Q (protein)
chain: EVTQEDIIRALASPLIKDGMVDEDFAEYVIEREKRSPTGLQVKGVGVAIPHTLGEYVRDNAISVGILDKPVNFEGWYQSPDPVPVRVVFMLAGRTWDDIVNVLKWIKDVILDEEFMKRLLTMSDEEIYRQIYTRISKAPGMRGIHFKREYVRHLG
Consider B3, for which the Kd in assay [2] was found to be 8000 nM. That is a single-digit micromolar value.

B4: MPER (scaffold without germline-targeting mutations) 10E8-GT10.2 (substitutions not printed in the panel; sequence in Extended Data Fig. 1h) (protein)
chain: NVTQEDIIRALASPLIKDGMVDEDFAEYVIARENRSPTGLQAKGVGVAIPHTLGDYVRDNAISVGILDKPVNFSGWYQSPDPVPVRVVFMLAGRTWDDIVIVLKWIKDVILDEEFMKRLLNMSDEEIYRQIYTRISKAPNLSGINFSREYVRHLN
As for B4, the Kd in assay [1] was determined as 38 nM; in assay [2], 11000 nM.
